This assay deals with T1, QE-Bgn (bacterially expressed recombinant human biglycan core) (human, UniProt P21810 38-368).
T1 construct: Produced in E. coli M15[pREP4]; contains no chondroitin sulfate side chains; tested as lysate of induced bacteria on a blot; also called QE-BIG; bacterially-expressed biglycan
T1 sequence: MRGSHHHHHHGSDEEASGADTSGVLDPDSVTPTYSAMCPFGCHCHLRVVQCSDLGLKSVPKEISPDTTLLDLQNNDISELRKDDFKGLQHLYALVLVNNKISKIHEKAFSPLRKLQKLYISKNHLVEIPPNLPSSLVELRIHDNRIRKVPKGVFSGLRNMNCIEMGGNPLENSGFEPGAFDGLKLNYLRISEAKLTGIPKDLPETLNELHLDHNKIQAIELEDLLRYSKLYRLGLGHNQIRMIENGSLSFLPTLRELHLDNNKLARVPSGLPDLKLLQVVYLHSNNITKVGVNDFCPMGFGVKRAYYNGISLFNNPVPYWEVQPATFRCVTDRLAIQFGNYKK
Nature of the assay: dystroglycan blot overlay on lysate of induced bacteria (FIG. 7).

B1: α-dystroglycan (dystroglycan as named in the overlay assays; fragment not named at the place) (receptor, human, UniProt Q14118 345-653, looked up)
chain: PAIAPPTETMAPPVRDPVPGKPTVTIRTRGAIIQTPTLGPIQPTRVSEAGTTVPGQIRPTMTIPGYVEPTAVATPPTTTTKKPRVSTPKPATPSTDSTTTTTRRPTKKPRTPRPVPRVTTKVSITRLETASPPTRIRTTTSGVPRGGEPNQRPELKNHIDRVDAWVGTYFEVKIPSDTFYDHEDTTTDKLKLTLKLREQQLVGEKSWVQFNSNSQLMYGLPDSSHVGKHEYFMHATDKGGLSAVDAFEIHVHRRPQGDRAPARFKAKFVGDPALVLNDIHKKIALVKKLAFAFGDRNCSTITLQNITRG
notes: also called alpha-dystroglycan
For B1, the binding result was “no binding”.

For the origin of these results see US20040063627A1 (BROWN UNIVERSITY RESEARCH FOUNDATION, published 2004).
